Test results: patent publication US20160053277A1, “Compositions Having Dicamba Decarboxylase Activity and Methods of Use” (PIONEER HI-BRED INTERNATIONAL, INC., priority 2013, published 2016)

Assays:
[1] = 14C assay with IPTG-induced recombinant E. coli cells: 14CO2 captured from [14C]-carboxyl-labeled dicamba; details: for Enzymatic Detection level: dicamba decarboxylation activity of the protein of the given SEQ ID NO, High / Low / No; for Dicamba Decarboxylase Activity: induced recombinant E. coli cells, [14C]-carboxyl-labeled dicamba, 14CO2 capture
[2] = Saturation mutagenesis of SEQ ID NO:109: dicamba decarboxylation activity of point mutants (carbon dioxide released); details: decarboxylation activity (carbon dioxide released) of point mutant compared with unmutated backbone protein; backbone SEQ ID NO: 109

Row | Molecule | Enzymatic Detection level [1] | Dicamba Decarboxylase Activity [1] | Fold Activity [2]
1 | 101 (protein, listed as Aquifex aeolicus) MAQKIALCITGASGVIYGIKLLQVLEELDFSVDLVISRNAKVVLKEEHSLTFEEVLKGLKNVRIHEENDFTSPLASGSRLVHYRGVYVVPCSTNTLSCIANGINKNLIHRVGEVALKERVPLVLLVREAPYNEIHLENMLKITRMGGVVVPASPAFYHKPQSIDDMINFVVGKLLDVLRIEHNLYKRWRG | No | No | 1.8
2 | 98 (protein, Xanthomonas campestris pv.) MAIIDCHGHYTTAPAAHDAFRKAQIAHHDDPQQPAPQYPHISDDALRESIEQHQLRLLRERGADMTIFSPRASTMAHHIGNEAVSQVWTQRCNDLIARVVQLYPHTFIGVCQLPQSPGVPISHSIAELERCVNELGFVGCNLNPDPSGGHWNGVPLTDRAWYPFFEKMVELDVPAMVHVSGSCNANFHATGAHYLNADTTAFMQFLEGDLFRDFPSLRFIIPHGGGAVPYHWGRFRGLADMLGKPPLATHVMRNVFFDTCVYHQPGIDLLFEVIDIDNILFGSEMVGAVRGIDPQTGHYFDDTKRYIDALTISDADKRKVFEGNARRVYPRLDAQLRARGL | No | No | 2.3
3 | 93 (protein, listed as Mucilaginibacter paludis) MAKYGKHITINKNMRIVTLEEHISFPEMADQIPKAALGSFGRSEAMQRIAPKLADITGERLKSMDANGISMQVLSVDSSGVNLLSPQQGPAFATQYNDLIANRIAGFEKRFTAFAHLPMTAPFAAADELERAVKEHHFCGAMIRGLTGDQFLDHPQFAPIFERAQKLDVPIYLHPGLPPKGVADIYYSGLPNYSGMAEALACYGWGWHSETALHVLRLLFSGIFDQYPKLKLVIGHMGEMLPMMMARSEKAFKPGNGGANVRTLTDTFRSQVYLTTSGFFTQPPLKIALDTFGIDHVMFSVDYPFSTNEMGIEFLNEIDLPDEEVARIAHGNADKLLNLKA | Low | Low | 1.6
4 | 6 (protein, Treponema brennaborense) MAEILSPEESIYYSKLSNDILAEGIKKNPTRFRGFAALPTPDPIQAAMELERCIKLGGFVGAIINGHINGHYLDEIQFDPILEAADALDVPLYIHPAVPPKAIIDTYYKMNDTYAQTVMVSGGWGWHIETGVHVLRLISSGVFDRHPNLKIVIGHLGEGLPFFMHRLNNAIGGNLKKSYSTYLKENIYYTISGFNDPDLFQFVLKKVGENNIMFSSDYPFNFPKREVELFNELNISEEVREKISFKNAERILKI | No | No | 0.9
5 | 7 (protein, listed as Legionella pneumophila) MAIVDFETHFITEACIDYLTQRQEVPKLVPELNGAYTMCFTPDVSLFHTSALMEELLSLNEQRLAIMDQAGVTIQVLSLTTINGIDSCPGDENKSTALAREVNDQLYSAIQRHPERFKGFASISPYDVKEGVKELERAISQLGFVGWLTHSNFGEDNYLDDKTYWPLLEAAEGLNIPIYLHPNVPIMREFGKYGFALGGSALGFEFDTALCLMRMILGGVFDAFPKLKIMLGHLGETMPFLMERLDHLYRIPDLKAYRPSIQRIPSEVLRQNVYITTSGRFFVPALRYVLEVMGEDRVLFASDYPMESLLDATRFIQDSDLSNQTKQKIFSINAKNLNLI | No | No | 1.3
6 | 104 (protein, Plasmodium Vivax) MANILQEPIDFLKKEELKNIDLSQMSKKERYKIWKRIPKCELHCHLDLCFSADFFVSCIRKYNLQPNLSDEEVLDYYLFAKGGKSLGEFVEKAIKVADIFHDYEVIEDLAKHAVFNKYKEGVVLMEFRYSPTFVAFKYNLDIELIHQAIVKGIKEVVELLDHKIHVALMCIGDTGHEAANIKASADFCLKHKADFVGFDHGGHEVDLKEYKEIFDYVRESGVPLSVHAGEDVTLPNLNTLYSAIQVLKVERIGHGIRVAESQELIDMVKEKNILLEVCPISNVLLKNAKSMDTHPIRQLYDAGVKVSVNSDDPGMFLTNINDDYEELYTHLNFTLEDFMKMNEWALEKSFMDSNIKDKIKNLYF | No | No | 2.1
7 | 94 (protein, listed as Bacillus thuringiensis) MANRGDSNMKSLVGVIMGSTSDWETMKYACDILDELNIPYEKKVVSAHRTPDYMFEYAETARERGLKVIIAGAGGAAHLPGMVAAKTNLPVIGVPVQSKALNGLDSLLSIVQMPGGVPVATVAIGKAGSTNAGLLAAQILGSFHDDIHDALELRREAIEKDVREGSELV | No | No | 1.5
8 | 96 (protein, Aspergillus nidulans) MAPLIVDVHTHVYPPAYMQMLRSRKTVPYVHDPSNNRDPRLIILSSDDDASIPLDQRGRPVDSSYWDINVKLSFMRQHGINCSVISLANPWLDFVEPAEAQMWAERINDDLEKTCATVNKAADPGNTLTLDQKETLFAFGALPLSAPSSESVVAEIKRLKTLEHLRGVIMGTSGLGKGLDDARLDPVWEALQETDMLMFLHPHYGLPEEAYGGPETTGRYGHVLPLALGFPLETTIAVTRMLLSGVFDRFPRLKILLAHSGGTLPFLAGRIESCILHERKFISGGGDVQGPQRSVWDVLKTNIYLDAVVYGKPGLEAAMTASGSDRLLFGTDHPFFPPLDSKDNSWPSVTTNYQAIHATFDTNSKTVADVLGGNAARILNLK | No | No | 1.1
9 | 99 (protein, listed as Ralstonia solanacearum) MAIIDCHGHFTTAPTALEDWRKRQIANLATPALGPSPDDLKISDDALTEAIRANQLRLMQARGSDLTIFSPRASFMAHHIGDFHTSATWAAICNALCHRVSQLFPDHFVGAAMLPQSPGVDIRTCIPELARCIVDYGFVGVNLNPDPSGGHWTSPPLSDPYWFPLYEKLVEYDVPAMIHVSTSCNACFHTTGAHYLNADTTAFMQVLTSDLFRRFPTLKFVIPHGGGAVPYHWGRFRGLAQELKTPPLQEHLLHNVFFDTCVYHQPGIDLLTRVIPVDNILFASEMIGAVRGIDPETGHPFDDTRRYIDQAHTLSAEDRHKIYEGNARRVYPRLDARLKARGR | No | No | 1.7
10 | 90 (protein, Pyrenophora tritici-repentis) MAATIDRVLYLGNATQRRYTSATVSVPRIFGKVALEEHVGTSIWAKYNLTPPANAVVGVLNRPPTLPNTLDTIARLDDINGRLSSMNHSGIGYVIVSLSSPGIQGVHDTALAIKFSTDINDELYLKYANAYPDKFAFFATVPMQDPVAAASELERAVSLLGAKGAAINGYTDIGPPGNSTTRYLDDPINAPFWSKVAALNVPIYLHPRAPPPSQQLVYNYPNNSLSAYPGLVTGGFAYGAETAVHALRLMLSGLFDTHPNIQIILGHAAEGLPFLIHRSDTQLAAEVPGTNGPYKRPLRYYLRNNFYATLSGVRRLSTTQCTLAEMGEERVLFSVDYPFQSNEDAADWFDGVEGMSVETKRKVARGNARRLFNLTVDLDERQIDGDFM | Low | Low | 1.7
11 | 102 (protein, listed as Lactobacillus plantarum) MATKTFKTLDDFLGTHFIYTYDNGWEYEWYAKNDHTVDYRIHGGMVAGRWVTDQKADIVMLTEGIYKISWTEPTGTDVALDFMPNEKKLHGTIFFPKWVEEHPEITVTYQNEHIDLMEQSREKYATYPKLVVPEFANITYMGDAGQNNEDVISEAPYKEMPNDIRNGKYFDQNYHRLNK | No | No | 2.6
12 | 97 (protein, listed as Sphingobium sp.) MAMMIIDCHGHYTVLPKAHDEWREQQKAAFKAGQPAPPYPEISDDEIRETIEANQLRLIKERGADMTIFSPRASAMAPHVGDQSVAVPWAQACNNLIARVVDLFPETFAGVCMLPQSPEADMTSSIAELERCVNELGFIGCNLNPDPGGGHFKHPPLTDRFWYPFYEKMVELDVPAMIHVSGSCNPAMHATGAYYLAADTIAFMQLLQGNLFADFPTLRFIIPHGGGAVPYHWGRFRGLADMLKQPSLDTLLMNNVFFDTCVYHQPGINLLADVIDNKNILFGSEMVGAVRGIDPTTGHYFDDTKRYIDALDISDQERHAIFEGNTRRVFPRLDAKLKARGL | No | No | 2.9
13 | 91 (protein, listed as Botryotinia fuckeliana) MASFVCNFGKAALATLLLTPSISAADYTPQETVLNSGRPTFYDASTSIPGKIALEEHVGNDLLNGLYTVPYYPNTNEPQYSDSVYIADVGEKMLDIPSRIANMDAANISISVLTFGGPGIQGVFNATYATYAAGYVNDYLYKNYKNNANYTGRFEFWCSNALQEPSKAATELERCVKELGGVGSFVGGYTNNGGINGTANDIVYLDDPSMEPFLEKVVELDVPIYLHPRMPAPSQLLSVKGYEFLGSSPWGFSSETGAHALRLMVSGTLDKYPTLKIVLGHCGEGLPFFLPRIDQRLRHFKKELFNNTLTMEEYWLRNFYVTTAGVQDAGTLVDTIKRTGEDRVMFSVDYPFEDTVEIAGWFDRLEMNTLTKTKLAYENAKALLKLTCYVDAEKRPRIFNKHHVDDIIKHTHSPCIWTLFH | Low | Low | 1.6
14 | 103 (protein, Plasmodium yoelii yoelii) MAMEIPTEEIKFLKKEDVQNIDLNGMSKKERYEIWRRIPKVELHCHLDLTFSAEFFLKWARKYNLQPNMSDDEILDHYLFTKEGKSLAEFIRKAISVSDLYRDYDFIEDLAKWAVIEKYKEGVVLMEFRYSPTFVSSSYGLDVELIHKAFIKGIKNATELLNNKIHVALICISDTGHAAASIKHSGDFAIKHKHDFVGFDHGGREIDLKDHKDVYHSVRDHGLHLTVHAGEDATLPNLNTLYTAINILNVERIGHGIRVSESDELIELVKKKDILLEVCPISNLLLNNVKSMDTHPIRKLYDAGVKVSVNSDDPGMFLSNINDNYEKLYIHLNFTLEEFMIMNNWAFEKSFVSDDVKSELKALYF | No | No | 1.7
